Sequences and labels used below:
B1: LINE1-mini (parent)
chain: GGCAGAGCUCAACACAGCGUGGCAAAGUGGCUGUGGCUAGACUGCC

Variants of B1 are the subject of the data set. In words: self-cleavage, relative activity (ratio to wild type); higher = more cleavage; in vitro, sequencing; the parent is a self-cleaving ribozyme.
In the case of C31U U32A, the self-cleavage worked out at 0.09. Turning to C31U U32G, the self-cleavage was found to be 0.06.

As for C31U U32C, the self-cleavage amounted to 0.08. For C31G G35U, the self-cleavage is 0.03.

For the variant C31G G35A, the self-cleavage worked out at 0.04. The value for C31G G35C was 0.05. In the case of C31G C45U, the self-cleavage is 0.08.

On to C31G C45G, for which the self-cleavage came to 0.04. Take C31G C45A: the self-cleavage is 0.04. For C31U G36A, the self-cleavage was determined as 0.12.

On to C31U G36C, for which the self-cleavage was 0.07. Take C31U G36U: the self-cleavage is 0.06. The value for G30A G36C was 0.07. For the variant G30A G36A, the self-cleavage was determined as 0.43. On to G30A G36U, for which the self-cleavage amounted to 0.1. For the variant G30U U38G, the self-cleavage came out at 0.03. On to G30U U38A, for which the self-cleavage is 1. For G30U U38C the value was 1.12; for G30C G36A, 0.1. For G30C G36U, the self-cleavage amounted to 0.11. For G30C G36C, the self-cleavage is 0.06. Turning to G30A U34G, the self-cleavage was 0.11. The value for G30A U34A was 0.05. As to G30A U34C, the self-cleavage was 0.12. The value for U32A A41C was 0.07; that for U32A A41U was 0.13. As for U32A A41G, the self-cleavage was 0.04. In the case of C31U G35U, the self-cleavage amounted to 0.07. Take C31U G35A: the self-cleavage was 0.03. The value for C31U G35C was 0.04; that for G29U U38C was 0.47.

With G29U U38A, the self-cleavage is 0.4. For the variant G29U U38G, the self-cleavage is 0.02. As for G30C U32G, the self-cleavage amounted to 0.3. For G30C U32C the value was 0.09. With G30C U32A, the self-cleavage was found to be 0.26.

Consider C31G G44C, for which the self-cleavage turned out to be 0.05. For C31G G44U the value was 0.05; for C31G G44A, 0.05.

Take C31A C46A: the self-cleavage came to 0.13. The value for C31A C46U was 0.11; that for C31A C46G was 0.11. Consider G30U C31A, for which the self-cleavage is 0.19. For G30U C31U the value was 0.07; for G30U C31G, 0.06; for C31U G44C, 0.07. With C31U G44A, the self-cleavage was found to be 0.04. As to C31U G44U, the self-cleavage amounted to 0.05. On to C31A G40A, for which the self-cleavage was found to be 0.04. As to C31A G40U, the self-cleavage is 0.05. As for C31A G40C, the self-cleavage is 0.04.

On to C31G, for which the self-cleavage came to 0.1.

C31U: the self-cleavage was 0.26. The value for C31A was 0.15.

For G30U U32C, the self-cleavage worked out at 0.23. Regarding G30U U32G, the self-cleavage is 0.08. The value for G30U U32A was 0.13.

For the variant C31A G35C, the self-cleavage was 0.04. Turning to C31A G35A, the self-cleavage came out at 0.04.

As for C31A G35U, the self-cleavage was 0.06. With G30C U43G, the self-cleavage amounted to 0.02.

Take G30C U43A: the self-cleavage was 0.06. In the case of G30C U43C, the self-cleavage amounted to 0.25. C31U U38A: the self-cleavage came out at 0.2. On to C31U U38G, for which the self-cleavage came to 0.05. As for C31U U38C, the self-cleavage was 0.14.

With U32A C45A, the self-cleavage is 0.11. Take U32A C45G: the self-cleavage was found to be 0.07. For the variant U32A C45U, the self-cleavage was found to be 0.07.

As for U32A, the self-cleavage was found to be 0.1. Turning to G30U G33A, the self-cleavage was 0.08.

For G30U G33C, the self-cleavage is 0.11.

As for G30U G33U, the self-cleavage amounted to 0.08.

Consider C31U A39C, for which the self-cleavage is 0.12. Regarding C31U A39G, the self-cleavage turned out to be 0.05. Consider C31U A39U, for which the self-cleavage was found to be 0.13. Regarding C31G U43G, the self-cleavage is 0.05. Regarding C31G U43A, the self-cleavage was 0.13. For C31G U43C the value was 0.05; for G30A C31G, 0.09; for G30A C31A, 0.4.

For the variant G30A C31U, the self-cleavage amounted to 0.14.

As for U32A G44U, the self-cleavage was determined as 0.06. The value for U32A G44A was 0.23; that for U32A G44C was 0.07. For C31A A41G, the self-cleavage stood at 0.08. As to C31A A41U, the self-cleavage is 0.09. Regarding C31A A41C, the self-cleavage turned out to be 0.03.

C31G C37U: the self-cleavage is 0.05. For the variant C31G C37A, the self-cleavage stood at 0.09. For the variant C31G C37G, the self-cleavage was determined as 0.04. Consider U32A G40U, for which the self-cleavage came to 0.16.

U32A G40C: the self-cleavage worked out at 0.08. With U32A G40A, the self-cleavage turned out to be 0.06. With U32A G33A, the self-cleavage came to 0.08. The value for U32A G33U was 0.07; that for U32A G33C was 0.08.

G29U U32C: the self-cleavage is 0.16.

Regarding G29U U32A, the self-cleavage is 0.34. On to G29U U32G, for which the self-cleavage is 0.27.

Take U32A U38A: the self-cleavage turned out to be 0.09. Consider G30U G44U, for which the self-cleavage amounted to 0.21. Take G30U G44A: the self-cleavage was found to be 0.42.

Take G30U G44C: the self-cleavage worked out at 0.16. On to G30A C37A, for which the self-cleavage was determined as 0.05. G30A C37G: the self-cleavage stood at 0.06.

G30A C37U: the self-cleavage amounted to 0.11.

C31G U34A: the self-cleavage was 0.03. For C31G U34G the value was 0.04; for C31G U34C, 0.14. The value for G30C U34G was 0.1.

Regarding G30C U34C, the self-cleavage was determined as 0.12.

For G30C U34A, the self-cleavage turned out to be 0.12. For G29U U34G, the self-cleavage was 0.27.

With G29U U34C, the self-cleavage was 0.13. For G29U U34A the value was 0.37; for U32A A39G, 0.05. On to U32A A39C, for which the self-cleavage was 0.06. For U32A A39U, the self-cleavage amounted to 0.06. The value for C31G A41G was 0.03; that for C31G A41C was 0.05.

For the variant C31G A41U, the self-cleavage turned out to be 0.09. Turning to C31U U43G, the self-cleavage worked out at 0.02. As to C31U U43C, the self-cleavage turned out to be 0.06.

Consider C31U U43A, for which the self-cleavage came to 0.06. For the variant C31U A41C, the self-cleavage was found to be 0.06. For C31U A41U the value was 0.16.

For C31U A41G, the self-cleavage is 0.04. The value for G30U C37U was 0.05; that for G30U C37A was 0.08. On to G30U C37G, for which the self-cleavage came to 0.05. The value for C31A G44C was 0.04; that for C31A G44U was 0.04; that for C31A G44A was 0.06.

Regarding C31A C42A, the self-cleavage worked out at 0.04. C31A C42G: the self-cleavage is 0.05. Regarding C31A C42U, the self-cleavage came to 0.05. On to C31A G33A, for which the self-cleavage turned out to be 0.06. For C31A G33C the value was 0.1. For C31A G33U the value was 0.08; for G29U U43A, 0.2; for G29U U43G, 0. As for G29U U43C, the self-cleavage was 0.08.

Take G30C U38G: the self-cleavage is 0.03. Regarding G30C U38A, the self-cleavage is 0.75.

In the case of G30C U38C, the self-cleavage was determined as 0.49. With G30A U38A, the self-cleavage was 0.72. The value for G30A U38G was 0.03; that for G30A U38C was 0.64. On to G30C C45U, for which the self-cleavage came out at 0.88.

Consider G30C C45A, for which the self-cleavage is 0.33.

G30C C45G: the self-cleavage amounted to 0.21. The value for G30U U34G was 0.09; that for G30U U34A was 0.05.

As for G30U U34C, the self-cleavage is 0.05.

C31U C45U: the self-cleavage worked out at 0.18.

Turning to C31U C45G, the self-cleavage worked out at 0.1.

Consider C31U C45A, for which the self-cleavage is 0.13. Consider C31U C37G, for which the self-cleavage turned out to be 0.05. For C31U C37A the value was 0.09; for C31U C37U, 0.07; for C31A U38C, 0.16. For C31A U38A, the self-cleavage turned out to be 0.12.

C31A U38G: the self-cleavage was 0.03. C31G U38A: the self-cleavage was 0.09. With C31G U38C, the self-cleavage was 0.07. C31G U38G: the self-cleavage was 0.03.

The values above are taken from the RNAGym collection of RNA variant scans (doi:10.7554/elife.90254).
